Measured values published in the supplement of paper PMC10567573.

B1: TNXB (parent)
chain: LLQRELMVPGTRHSAVLRDLRSGT

Variants of: B1
Experiment: protein stability index of a GFP-peptide fusion (GPS, HEK-293T) (PSI 1-6); higher = more stable
Details: c terminus: a fixed tail appended
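Further: lentivirally expressed fusions sorted by FACS into six bins by GFP to DsRed ratio, PSI derived from sequencing read proportions per bin multiplied by bin number.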

Protein stability index of substitutions, site by site:
T24: C 1.77; F 2.13; W 1.84; D 2.5; R 2.88; V 2.29; K 2.03; L 2; G 3.51; M 2.29; Y 2.64; S 2.2; N 2.37; H 2.13
L20: I 2.52; Q 2.89; D 3.65; W 2.3; G 3.37; S 3.38; C 2.85; R 2.86; M 2.25; A 2.97; T 2.66; F 1.92; H 2.7
S22: D 2.96; V 1.82; Y 2.18; P 2.43; W 1.71; A 2.32; E 2.41; T 2.39; N 2.09; F 1.58; L 2.04; Q 3.04
D19: F 2.18; G 2.31; R 1.69; E 2.78; K 2.07; S 2.31; I 1.71; P 2.69; M 2.39; V 1.71; W 1.73; Y 2.23; H 2.26
R18: W 1.8; G 2.44; E 3.33; H 2.86; D 2.83; L 1.94; F 2.02; T 2.43; C 2.42; N 2.71; Y 2.07; I 2.21
L2: W 2.12; N 3.34; V 2.48; I 2.79; D 3.23; C 2.13; P 3.71; H 3.43; F 2.15; Q 3.54; E 3.95; G 3.42; T 3.29; K 3.33; S 3.4; A 3.36; M 2.28
P9: E 2.54; W 1.68; S 2.2; F 1.79; M 2.1; A 2.35; R 2.21; K 2.21; Y 2.01; I 1.58; Q 2.1; C 2; N 2.34; T 2.03; G 2.3
R4: E 2.65; P 2.77; F 1.72; T 2.23; G 2.43; V 1.81; D 3.44; Y 2.37; L 2.76; I 2.3; Q 2.46; H 2.73; M 2.37; W 1.49; C 2.49
V16: A 3.05; E 2.72; Y 3.05; S 2.27; H 2.46; W 2.06; T 2.7; F 1.71; M 2.15; N 3; I 2.11; Q 2.68; L 2.33; K 2.48; P 2.82
M7: S 3.42; F 2.02; C 2.54; H 2.35; D 3.17; G 3.15; K 2.52; L 2.39; R 2.16; W 2.05; N 2.57; P 3.11; A 2.97; V 2.67; Y 3.15; T 2.72; Q 2.23
L1: P 2.53; Y 2.3; S 3.2; G 2.89; M 2.73; R 3.04; A 2.85; T 3.02; V 2.47; F 2.41; H 2.98; K 2.87
R21: P 2.85; D 2.69; S 2.06; K 3.03; Y 2.12; L 1.99; H 3.21; M 1.99; V 1.88; N 2.34; Q 2.01; A 2.73; W 2.75; I 2.13
H13: Q 3; E 2.82; P 3.06; G 2.31; Y 2.15; L 2.01; D 3.23; N 2.58; K 2.09; R 3.11; V 2.1; S 2.9; M 2.25; I 1.91; A 2.53; W 2.01
L17: Y 2.45; C 2.54; G 2.84; P 2.97; H 2.28; E 3.47; M 3.05; N 2.96; K 3.75; V 2.85; A 2.55; W 2.38; Q 3.32; I 2.81
S14: E 2.54; T 2.45; Q 2.85; P 2.32; D 2.66; W 2.11; H 2.26; G 2.63; M 2.23; L 1.61; K 2.67; Y 2.71; F 2.32
V8: K 2.46; P 2.21; M 2.15; N 2.59; T 2.36; G 2.27; R 2.12; Y 2.32; H 2.36; C 2.12; A 2.42; I 1.99; D 2.91; W 2.34; E 2.62; L 2.35
T11: A 2.2; Y 1.94; G 3.21; P 2.51; F 2.3; K 2.32; V 2.24; W 1.69; S 2.5; D 2.81; I 2.38; N 2.43; H 2.68; M 2.2; Q 2.88; E 2.65; C 1.56
E5: P 2.44; W 2.84; I 2.06; K 2.6; M 1.64; G 2.03; D 2.81; S 2.29; A 1.81; Y 2.38; V 2.11; N 2.85; Q 2.6; C 1.67
G23: V 2.13; L 1.81; A 2.31; H 2.31; W 2.09; C 2.36; R 2.72; N 2.58; Q 3.73; D 3.38; S 2.94; P 2.14; F 2.82
Q3: E 3.52; K 2.7; H 2.49; R 2.49; A 2.27; C 1.93; F 2.59; D 3.4; Y 1.72; T 2.17; N 2.38; V 1.58; W 2.15
A15: K 2.82; N 3.19; C 1.72; M 2.43; G 2.34; E 2.92; P 2.35; I 2.26
G10: F 2.33; P 2.54; E 3.01; T 2.58; D 2.85; M 1.72; Y 1.09; H 2.19; W 1.72; S 3.01; R 2.9; A 2.39; I 1.64
R12: V 2.26; C 1.94; S 2.06; N 2.76; A 2.01; M 1.85; I 2.47; H 2.4; K 2.28; E 2.39; L 2.07; T 2.27; P 2.91; Y 2.45; F 1.98
L6: W 2.52; F 2.74; C 2.59; M 2.49; V 2.89; D 3.37; K 2.79; S 3.1; Y 2.63; I 2.19; Q 2.69; A 2.43; P 3.15
